The results in this text go back to US20190194329A1 (AbbVie / Abbott, published 2019).

In experiment [1] the target is T1, His-tagged ECD of mouse 4-1BB (mouse, UniProt P20334 24-187).
T1 construct: also called murine 4-1BB; mu4-1BB; not shown: His tag
T1 sequence: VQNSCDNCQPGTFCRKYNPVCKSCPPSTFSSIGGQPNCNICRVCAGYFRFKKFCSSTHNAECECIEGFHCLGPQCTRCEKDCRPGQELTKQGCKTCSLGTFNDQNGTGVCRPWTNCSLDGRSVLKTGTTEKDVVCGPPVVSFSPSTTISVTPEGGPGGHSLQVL
Kind of experiment: SPR (Biacore), captured antibody, His-tagged ECD analyte. How it is done:
(§1) The binding kinetics of the 4-1BB antibodies for target proteins were determined by using a Biacore T200 surface plasmon resonance system (BlAcore, GE Healthcare, Piscataway, N.J.). Polyclonal goat anti-human Fc antibody (Pierce 31125) was first immobilized to the biosensor surface using standard amine coupling reagents (N-ethyl-N′-dimethylamino-propylcarbodiimide, EDC; N-hydroxysuccinimide, NHS; and ethanolamine HCl, pH 8.5), followed by the capture of antibodies on parallel surfaces at a low flow rate of 10 μL/min. No capture of the antibody was made on the reference surface to serve as a negative control. Antigen (His-tagged ECD of 4-1BB derived from human, cynomolgus monkey, or mouse) was injected to all flow cells at a flow rate of 80 μL/min for three minutes to monitor association followed by a 10-20-minute flow of HBS-EP+running buffer (10 mM HEPES, 150 mM sodium chloride, 3mM EDTA, 0.05% Tween-20, pH 7.5) to monitor the dissociation phase. […] The surface was regenerated by two consecutive injections of 10 mM glycine (pH 1.5) at a flow rate of 60 μL/min at the end of each cycle. Binding data were fit to the 1:1 Langmuir model to extract binding constants from the BlAevaluate software. Double referencing was applied in each analysis to eliminate background responses from the reference surface and buffer only control.

Experiment [2] has as its target T2, His-tagged ECD of human 4-1BB (human, UniProt Q07011 24-184).
T2 construct: also called hu4-1BB; 4-1BB ECD; not shown: His tag
The experiment is described as above. The method, then:
as §1

In experiment [3] the target is T2, His-tagged ECD of human 4-1BB. Kind of experiment: SPR (Biacore). (SPR reads the build-up and loss of mass on a sensor chip optically.)
Experiment [4] deals with T3, His-tagged ECD of cynomolgus monkey 4-1BB (cynomolgus monkey, UniProt Q07011 24-186 (human entry)).
T3 construct: also called cynomolgus 4-1BB; cyno 4-1BB; not shown: His tag
T3 chain: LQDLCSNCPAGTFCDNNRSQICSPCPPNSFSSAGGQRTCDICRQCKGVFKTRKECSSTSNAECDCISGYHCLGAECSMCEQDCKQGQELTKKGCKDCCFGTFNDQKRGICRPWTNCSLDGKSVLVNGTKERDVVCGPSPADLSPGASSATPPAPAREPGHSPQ
The experiment is described as follows: SPR (Biacore), captured antibody, His-tagged ECD analyte. How it is done:
as §1

As a reminder, the Kd is the equilibrium constant for the complex coming apart. Usually koff stands for the first-order rate constant of dissociation. The kon is the second-order rate constant of association. In experiment [1], literature anti-4-1BB antibody 3H3 came in with a Kd of 0.98 nM, a koff of 0.0057 s⁻¹ and a kon of 5.8e+06 M⁻¹ s⁻¹.
For literature anti-4-1BB antibody 1D8, in that order: 3.9 nM, 0.008 s⁻¹ and 2.1e+06 M⁻¹ s⁻¹.

B1: 20H4.9-hIgG4 (antibody, V domains shown)
VH: QVQLQQWGAGLLKPSETLSLTCAVYGGSFSGYYWSWIRQSPEKGLEWIGEINHGGYVTYNPSLESRVTISVDTSKNQFSLKLSSVTAADTAVYYCARDYGPGNYDWYFDLWGRGTLVTVSS
VL: EIVLTQSPATLSLSPGERATLSCRASQSVSSYLAWYQQKPGQAPRLLIYDASNRATGIPARFSGSGSGTDFTLTISSLEPEDFAVYYCQQRSNWPPALTFGGGTKVEIKR
With B1, in experiment [2], the Kd came out at 4.9 nM, the koff turned out to be 0.0021 s⁻¹ and the kon is 420000 M⁻¹ s⁻¹. In addition, the binding result in experiment [1] is “no binding (tested: antigen between 100 nM and 3.7 nM)”.

B2: Mouse TABBY9 with mouse IgG1 constant (antibody, V domains shown)
VH: QVQLKQSGPGLVQPSQSLSITCTVSGFSLTSYGVHWVRQSPGKGLEWLGMIWSGGSTDYNAAFISRLSISKDNSKSQVFFKMNSLQADDTALYFCASYGGFYETMDYWGQGTSVTVSS
VL: DIQMTQTTSSLSASLGDRITISCRASQDISNYLNWYQRKPDGTVKLLIYYTSRLHSGVPSRFSGSGSGRDYSLTISNLEQEDIATYFCQQGNTLPYTFGGGTKLEIK
notes: Mouse IgG1; also called TABBY9-mIgG1
B2: the binding result in experiment [3] was “binds”.

B3: MOR-7480.1-hIgG2 (antibody, V domains shown)
VH: EVQLVQSGAEVKKPGESLRISCKGSGYSFSTYWISWVRQMPGKGLEWMGKIYPGDSYTNYSPSFQGQVTISADKSISTAYLQWSSLKASDTAMYYCARGYGIFDYWGQGTLVTVSS
VL: SYELTQPPSVSVSPGQTASITCSGDNIGDQYAHWYQQKPGQSPVLVIYQDKNRPSGIPERFSGSNSGNTATLTISGTQAMDEADYYCATYTGFGSLAVFGGGTKLTVLG
With B3, in experiment [1], the binding result was “no binding (tested: antigen between 100 nM and 3.7 nM)”.

B4: hu107-1-hIgG4 (antibody, V domains shown)
VH: EVQLVQSGAEVKKPGSSVKVSCKASDYTFNDYWVSWVRQAPGQGLEWIGEIYPNSGATNFNGKFRGRATLTVDNSASTAYMELSSLRSEDTAVYYCTREYTRDWFAYWGQGTLVTVSS
VL: DVVLTQSPLSLPVTLGQPASISCRSSQSLLDSDGNTYLYWFQQRPGQSPRRLIYLVSNLGSGVPDRFSGSGSGTDFTLKISRVEAEDVGVYYCMQPTHAPYTFGQGTKLEIK
notes: Human IgG4 constant region with the S228P mutation; also called hu107.1x.1x
On to B4, for which the Kd in experiment [4] turned out to be 0.22 nM; in experiment [2], 0.58 nM; in experiment [1], 4 nM. The off-rate (koff) was 5.2e-05 s⁻¹ in experiment [4] and 8e-05 s⁻¹ in experiment [2]. The figures for the kon in experiment [2] and in experiment [1] were 140000 M⁻¹ s⁻¹ and 330000 M⁻¹ s⁻¹, respectively.

B5: hu107-3-hIgG4 (antibody, V domains shown)
VH: EVQLVQSGAEVKKPGSSVKVSCKASDYTFNDYWVSWVRQAPGQGLEWIGEIYPNSGATNFNGKFRGRATLTVDNSASTAYMELSSLRSEDTAVYYCTREYTRDWFAYWGQGTLVTVSS
VL: DVQLTQSPSSLSASVGDRVTITCRSSQSLLDSDGNTYLYWFQQKPGKAPKRLIYLVSNLGSGVPSRFSGSGSGTDFTLTISSLQPEDFATYYCMQPTHAPYTFGQGTKVEIK
notes: Human IgG4 constant region with the S228P mutation; also called hu107.1x.1y
For B5, in experiment [4], the dissociation constant Kd is 0.29 nM, the koff turned out to be 7e-05 s⁻¹ and the on-rate constant (kon) came to 240000 M⁻¹ s⁻¹. Also, in experiment [2], binding was put at a Kd of 0.81 nM, the koff came out at 0.00011 s⁻¹ and the kon is 130000 M⁻¹ s⁻¹. In experiment [1], this molecule gave a Kd of 5.1 nM, a koff of 0.0016 s⁻¹ and an on-rate (kon) of 320000 M⁻¹ s⁻¹.

B6: hu107-1-hIgG1 (antibody, V domains shown)
VH: EVQLVQSGAEVKKPGSSVKVSCKASDYTFNDYWVSWVRQAPGQGLEWIGEIYPNSGATNFNGKFRGRATLTVDNSASTAYMELSSLRSEDTAVYYCTREYTRDWFAYWGQGTLVTVSS
VL: DVVLTQSPLSLPVTLGQPASISCRSSQSLLDSDGNTYLYWFQQRPGQSPRRLIYLVSNLGSGVPDRFSGSGSGTDFTLKISRVEAEDVGVYYCMQPTHAPYTFGQGTKLEIKR
notes: 312 is written here; Human IgG1 constant region bearing L234A and L235A; also called hu107.1x.1x
In experiment [4], B6 yielded a Kd of 0.13 nM, a koff of 4e-05 s⁻¹ and an on-rate constant (kon) of 310000 M⁻¹ s⁻¹.

B7: hu106-4-hIgG4 (antibody, V domains shown)
VH: EVQLVQSGAEVKKPGSSVKVSCKASGYTFTSYYIYWVRQAPGQGLEWIGNIWPGNGGTFYGEKFMGRATFTADTSTSTAYMELSSLRSEDTAVYYCARRPDYSGDDYFDYWGQGTLVTVSS
VL: SVELTQPPSVSVSPGQTARITCKLNSGNIGSYYVHWYQQKPGQAPVTMIYRDDKRPDGIPERFSGSSDSSSNSAFLTISGVQAEDEADYYCHSYDSTITPVFGGGTKLTVL
notes: Human IgG4 constant region with the S228P mutation; also called hu106.1x.3x
In the case of B7, in experiment [4], binding was characterised by a dissociation constant (Kd) of 180 nM, the off-rate constant (koff) amounted to 0.052 s⁻¹ and the kon stood at 280000 M⁻¹ s⁻¹. In experiment [2], this molecule displayed a Kd of 200 nM, a koff of 0.042 s⁻¹ and a kon of 210000 M⁻¹ s⁻¹. In experiment [1], this molecule had a Kd of 9.3 nM, a dissociation rate constant (koff) of 0.015 s⁻¹ and a kon of 1.6e+06 M⁻¹ s⁻¹.

B8: hu106-1-hIgG1 (antibody, V domains shown)
VH: EVQLVQSGAEVKKPGSSVKVSCKASGYTFTSYYIYWVRQAPGQGLEWIGNIWPGNGGTFYGEKFMGRATFTADTSTSTAYMELSSLRSEDTAVYYCARRPDYSGDDYFDYWGQGTLVTVSS
VL: NVMLTQPHSVSESPGKTVTISCKLNSGNIGSYYVHWYQQRPGSSPTTMIYRDDKRPDGVPDRFSGSIDSSSNSASLTISGLKTEDEADYYCHSYDSTITPVFGGGTKLTVLG
notes: 310 is written here; Human IgG1 constant region bearing L234A and L235A; also called hu106.1x.1x
Consider B8, for which, in experiment [4], the Kd is 170 nM, the koff was determined as 0.1 s⁻¹ and the on-rate constant (kon) is 620000 M⁻¹ s⁻¹.

B9: hu106-7-hIgG4 (antibody, V domains shown)
VH: EVQLVESGGGLVQPGGSLRLSCAASGYTFTSYYIYWVRQAPGKGLEWIGNIWPGNGGTFYGEKFMGRATFSADTSKNTAYLQMNSLRAEDTAVYYCARRPDYSGDDYFDYWGQGTLVTVSS
VL: SVELTQPPSVSVSPGQTARITCKLNSGNIGSYYVHWYQQKPGQAPVTMIYRDDKRPDGIPERFSGSSDSSSNSAFLTISGVQAEDEADYYCHSYDSTITPVFGGGTKLTVL
notes: Human IgG4 constant region with the S228P mutation; also called hu106.1y.3x
For B9, in experiment [2], the dissociation constant (Kd) turned out to be 420 nM, the koff came out at 0.047 s⁻¹ and the kon is 110000 M⁻¹ s⁻¹. Moreover, in experiment [1], the equilibrium dissociation constant (Kd) was determined as 17 nM, the koff came out at 0.037 s⁻¹ and the kon is 2.2e+06 M⁻¹ s⁻¹.
